# Assay results: patent US7514233
# Molecular target: Recombinant HIV-1 integrase from pRP1012 with the His6 tag removed by thrombin (HIV-1) (UniProt P04585)
# Experiment: cell-based or functional assay
substance,measurement,value
His6-tagged Inip76/LEDGF expressed in E. coli from pCP6H75 (pRSETB) (from UniProt O75475 2-530),IN protein remaining soluble after 45 minutes incubation at 4° C. and centrifugation at 20000 g,50%
